Source: patent US20120052092A1

Key:
[1] = target: fHbp Variant 2 (Neisseria meningitidis); assay: SPR
[2] = target: fHbp Variant 3 (Neisseria meningitidis); assay: SPR
[3] = target: factor H binding protein (wild type, variant 1) (UniProt E6MV22); assay: SPR
[4] = target: factor H binding protein (wild type, variant 1) (UniProt E6MV22); assay: SPR; sensorgram

Chain of fH678 (P08603 321-509): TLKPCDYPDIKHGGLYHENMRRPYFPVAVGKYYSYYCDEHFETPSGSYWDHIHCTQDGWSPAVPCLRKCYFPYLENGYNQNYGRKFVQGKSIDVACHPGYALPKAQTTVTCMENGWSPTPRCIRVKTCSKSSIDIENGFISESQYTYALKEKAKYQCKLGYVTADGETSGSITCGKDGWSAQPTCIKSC

| Substance | Kd [1] [nM] | Kd [2] [nM] | Kd [3] [nM] | Kd [4] [nM] |
| --- | --- | --- | --- | --- |
| FH67 N339E M340S | 44 | 165 |  |  |
| fH678 (from UniProt P08603 321-509) |  |  | 5 | 4.69 |
